Assay [1] addresses Vibrio vulnificus FAN1 (Vibrio vulnificus). In words: SEC.
The target is the same in assay [2]. Briefly: SEC. The source holds these as a separate data set.

The values below come from article PMC7105229.

Like-named read-outs stand apart in the source and are kept apart here.

Usually stoichiometry N stands for the number of molecules, sites or subunits per partner or assembly.

Regarding Vibrio vulnificus FAN1 (enzyme), the stoichiometry N in assay [1] and in assay [2] was 2 each time.
